Data taken from article PMC11295148.

Columns and labels:
Test in all cases: purified protein
[1] = substrate: O=C(O)c1cc(/N=N/c2ccc(S(=O)(=O)Nc3ccccn3)cc2)ccc1O; conditions: 40 μM NADH, 50 mM MOPS pH 7.2, 22 °C
[2] = substrate: CCN(CC)c1ccc(N=Nc2ccccc2C(=O)O)cc1; assay type: biochemical, Anaerotignum lactatifermentans; conditions: 400 μM NADH, 50 mM MOPS pH 7.2, 22 °C
[3] = substrate: CN(C)c1ccc(N=Nc2ccccc2C(=O)O)cc1; assay type: biochemical, Anaerotignum lactatifermentans; conditions: 400 μM NADH, 50 mM MOPS pH 7.2, 22 °C
[4] = substrate: Nc1ccc(N=Nc2ccccc2)c(N)n1; assay type: biochemical, Anaerotignum lactatifermentans; conditions: 400 μM NADH, 50 mM MOPS pH 7.2, 22 °C

B1: AlAzoR (Anaerotignum lactatifermentans DSM 14214) (protein)
chain: MKKVLFVNCCIRREGSRTQKLADHFLEGLRKKEGYEIEELCLMDESLSYFTDGFFEQRERLLADKQFDHPRFRYAHQFAEADKIVIAAPFWDLSFPALLKVYIENLCVEGITFGCNETGCFGTCKADQLIYLTTRGGFYNDNPMEMGSRYIWAMCDFFGIPRYDCVAGDGLDTGVRPVEEILEDAKAEIDRLLAEF
Km [1]: 8 ± 1 µM | kcat [1]: 0.05 s⁻¹ | kcat/Km [1]: 6100 M⁻¹ s⁻¹ | Km [2]: 30. ± 2 μM | kcat [2]: 0.78 ± 0.02 s⁻¹ | kcat/Km [2]: 26000 ± 2000 M⁻¹ s⁻¹ | Km [3]: 17 ± 3 µM | kcat [3]: 0.49 ± 0.03 s⁻¹ | kcat/Km [3]: 28000 ± 4000 M⁻¹ s⁻¹ | Km [4]: 23 ± 3 µM | kcat [4]: 0.138 ± 0.008 s⁻¹ | kcat/Km [4]: 6000 ± 700 M⁻¹ s⁻¹
